Measurements published in the DeepSol protein solubility set.

Experiment: soluble on expression in E. coli; label from the status in PepcDB or PDB records

Sequence	soluble on expression in E. coli
MTTTLFSSRIIQSALDFDVYKVNMMSAVAALYPDAMVSYKFIVRSEEDLSELLPEVKAEVLKLQDVRFTEDEIAYMKRVAPYLKPEFVEALRHFRFNPQSDVSFHNKTMSDGSSQLRITINGLWKETILYETIIMSIVSEVRSRQRWSDIPFEQFQTVLEDKVRYLKAELERRNITNFKFADMSTRRRFSFQAQRTMLEYLSKELPQCLTGTSNYHLARELDLTPIGTVAHEWFMGHQALVNVRDSQKIALQRWQKMFNGALGIALTDTIGIDAFLKDFDEELSHAYVGVRHDSGCPFTWGEKMIAHYESLGIDPMTKTLVFTDGLNFEQALDICEHFQGRVQVSFGIGTSLANDMGNYVNDQGEAYQPLSIVIKMVTCNGSPVAKISDEPEKAMCEDIFFLMNLKRRFEQPLDLNECRKLIDRLESEGQNYLIDALEHHHHHH	soluble
MAHHHHHHMDSQGPFLVIPTKRGAVPTLTPAQANAILEPSERILATSVFEAMDFVKPCIEAGMQLSTYCGLSGYKTVLTLRSSFQGLHASASSSDTAVAGDNERGRAVISFEKWRDVVKATRPTFAVAVHESLPLCEPLNKRRRVAATRSETWLANTEEASDLGCTILPSISAGCTHDGGYIDAVPRGENSYEFFQTLQALQLSPKKCTMCVAPSISVLLAAMVSNVSLLECPLPWTLAEKGVALLLPLEEATTTSPEPVVPLLDLNDNVYALDINPIAEGCDCFTCKRHCRAYLHHLLTVQEMNSDILLVMHNLAQVVLLVRAYRCASAPTREALVSRVASAL	not soluble
QSVLTQPPSVSAAPGQKVTISCSGSTSNIGNNYVSWYQQHPGKAPKLMIYDVSKRPSGVPDRFSGSKSGNSASLDISGLQSEDEADYYCAAWDDSLSEFLFGTGTKLTVLGQPKAAPSVTLFPPSSEELQANKATLVCLISDFYPGAVTVAWKADSSPVKAGVETTTPSKQSNNKYAASSYLSLTPEQWKSHKSYSCQVTHEGSTVEKTVAPTECS	soluble
MAVREYQKKRRRERIFRAAMELFRNRGFQETTATEIAKAAHVSRGTFFNYYPYKEAVLLDYGSQLLAGLREEVRRLLAQGREPVEVLRHLFRVLAEGTAREKDLLLPMFYELLNPDPVRARAAFEALPLGDLIAEILKPLREQGVLRQDFSLERMGRTLADLYFLSALRWAAYTPGRDLAEELEKNLRLLLEGMLVREAPAPGGL	not soluble
MGSDKIHHHHHHMQIDKQQVGNRIHQLRIAAGLSMAKLASAIGLAGKSTINDWEKGRTLANADRLAKVAAYFDVSTNYLLYGSLTEYVTAVFQNGGLNHSEFNVLLWEYVDLTTTNPNILSSDLFSSASQTEQGVSDPTKIAAALITPTINNAIRQIVPEIVQHYQQTTTYPEPQAVIQAGCYVFRHRIQIIRRTFTGKYNRIVRLLDNVDLYEKLQPDDDLKAYLNQTTGPKTQVQNGYSLDEKYQRQMNKVITEFHQALNRINDAYQAELMACGQGQAHSAAD	not soluble
GPGSMLVDRLQLSCEGTTTAGFTPLLEQFDKGTATQERGAEERAEGNLTPLRVYFRNKRHSLWGHRLWNAAKYMVKRMDSRMIDVRGKTVLELGAGLGVPSLAAFRNGARCVVATDYPDGDLLEILEMNVKANCRADLIDADAAAFLLQEAERLKLAQGYEKSGETVFSEAERQRALSTRCVVEPLLWGKQEHIQKVMSYTGGGGFDIVLLSDILFNHVCNDDLADTIVRVLQRSQHAAAYCVFSHHRAHKQVEDLEFFDKCVARGLRFEQVDEENYPMMFPDDSGPAEIRQPVKTYKIVHYFDDAGMAFQPGNDVFDVVIQGTGMVESIVSAALARSGIRVLHCDGEDDYGGAFKTMTVERMREYITGPLPASLDGAADNRDGRGDHEENHPRCNDGVIAVDRMDELKLHERRSFLLDLLPTHNLSNGETVRQLITSDMARHME	not soluble
MGSDKIHHHHHHMIHVGTCGFCEAREKYFKDFDAVEVQQTFYKVLQEKTLERWRKKAPEEFTFSIKAFQGVTHPSNSPTWRRSNVKPSKNVGLLRPTNEVLHYWRITLKEAKVLGARFILIQLPRSFKEGEESFENAEKFFNAIDRGDFEIGVELRGWSEKGVKRFVREFDVIDVTDPLLRIPLHKGSVNYYRLHGKYEGGKIIYNHSYSDEELKKIRERVLGWNVEESFVFFNNTSMCRDAKRFKLILDLH	not soluble
MLDSKLKAPVFTVRTQGREYGEFVLEPLERGFGVTLGNPLRRILLSSIPGTAVTSVYIEDVLHEFSTIPGVKEDVVEIILNLKELVVRFLNPSLQTVTLLLKAEGPKEVKARDFLPVADVEIMNPDLHIATLEEGGRLNMEVRVDPGVGYVPAEKHGIKDRINAIPVDAVFSPVRRVAFQVEDTRLGQRTDLDKLTLRIWTDGSVTPLEALNQAVEILREHLTYFSNPQAAAVAAPEEAKEPEAPPEQEEELDLPLEELGLSTRVLHSLKEEGIESVRALLALNLKDLKNIPGIGERSLEEIKEALEKKGFTLKE	soluble
MAHHHHHHMVENELLYENDVSNSGLDGKPRLHSFFNKDGLLLRTYSWTVKKAIGIFLLIHGLNGHVRLQYLRQNVEVISNDKAILKDQDNYYVYKDSWIEKLNDKGYSVYGIDLQGHGLSEGWENLKANINNFDDLVYDVIQYLEEINRTVCLDYERNKYLRAIREKNTDMKALKKDKIPIYIMGLSMGGNVVLRTLELLGKSGDYKNLNIKGCISLSGMICLEELSSKASMKYKYFLVPFSKFISYIFPKCRINQNFNFEMFPFVNDIINFDKHRSKKWITFKFGHQILRSITNLRKDIQYIPKDIPILFVHSIHDCACYYGGVVTFYDQLDNDKKELYTIYDMDHLLTMEPGNEKVLEKVLDWISGSFNNKRRRRRTSS	not soluble
MAMAKARKPREALLWALSDLEENDFKKLKFYLRDMTLSEGQPPLARGELEGLIPVDLAELLISKYGEKEAVKVVLKGLKVMNLLELVDQLSHICLHDYREVYREHVRCLEEWQEAGVNGRYNQVLLVAKPSSESPESLACPFPEQELESVTVEALFDSGEKPSLAPSLVVLQGSAGTGKTTLARKMVLDWATGTLYPGRFDYVFYVSCKEVVLLLESKLEQLLFWCCGDNQAPVTEILRQPERLLFILDGFDELQRPFEEKLKKRGLSPKESLLHLLIRRHTLPTCSLLITTRPLALRNLEPLLKQARHVHILGFSEEERARYFSSYFTDEKQADRAFDIVQKNDILYKACQVPGICWVVCSWLQGQMERGKVVLETPRNSTDIFMAYVSTFLPPDDDGGCSELSRHRVLRSLCSLAAEGIQHQRFLFEEAELRKHNLDGPRLAAFLSSNDYQLGLAIKKFYSFRHISFQDFFHAMSYLVKEDQSRLGKESRREVQRLLEVKEQEGNDEMTLTMQFLLDISKKDSFSNLELKFCFRISPCLAQDLKHFKEQMESMKHNRTWDLEFSLYEAKIKNLVKVKFLKGKSEERMKETLP	soluble
MSTAINSVEMSLSADEIRERVRAAGVVGAGGAGFPAHVKLQAQVEIFLVNAAECEPMLKVDQQLMWQQAARLVRGVQYAMTATGAREGVIALKEKYRRAIDALTPLLPDGIRLHILPDVYPAGDEVLTIWMATGRRVAPAALPASVGVVVNNVQTVLNIARAVEQRFPVTRRTLTVNGAVARPLTVTVPIGMSLREVLALAGGATVDDPGFINGGPMMGGLITSLDNPVTKTTGGLLVLPKSHPLIQRRMQDERTVLSVARTVCEQCRLCTDLCPRHLIGHELSPHLLVRAVNFHQAATPQLLLSALTCSECNVCESVACPVGISPMRINRMLKRELRAQNQRYEGPLNPADEMAKYRLVPVKRLIAKLGLSPWYQEAPLVEEEPSVEKVTLQLRQHIGASAVANVAVGERVTRGQCVADVPPGALGAPIHASIDGVVSAISEQAITVVRGLEHHHHHH	soluble
SLERLIRGMQYHYQWLTPFDAKRTTVVCLHGFTGTLATFAAVFPSQTPYNVLGIDLPGHGATASLVAPERYTMKQVCHDIAELTESLNLPCFCLLGYSMGARTALGFALHYPQKVQHLLLESGSPGLATAAERQARICQDHRLAERLLEEPLVDFIDFWQELPLFQTQKALSVAQQMAIRQERLSQSAFGLVSSLWYMGTGAQESYWERLAELQPIPTDLLVGGEDQKFIGIAKKMQARQPLLRLTIFPEAGHCIHLEQPTIFYEKVTALLEGAI	soluble
SNAMSRAKKWVQYFLSHRHVTMELIHKIDEAHYDYKPTPTSMTAKQLATHMLFSFYNFANTAKHGDPSLFRQKIEEPETNLAKLAETYTEKTRQLIESMSDDDFDRTLDLTAIFGTQMSTAQFLQLAMDHEIHHKGQLFVYVRGMGHTDLPLFVKRG	soluble
MQSSLSFSCGVKSTMAKSPVEVNLIPIEATPETFAEYGQVIEASRDGAGYGPNDAQLDLSKGIPRLYILRLKETPLGFFKITHHAKVTQCLGSIGGDIWYMGVAKPSLIEDDDDGRRVDTVKAKSGHLYIPPEVEEIRVFRFSGPKFVKLHRGTWHAGPLFSGSSIMDFYNLELSNTNVVDHTSHDFTKNNGVSFRFDT	not soluble
MRPDFGTDGRLPSALSMGTADVAFHLATGGNPVPLAFTFGFEGRAPTLDSVRARVAERVHHVPALRYRIARDRRKFRRVDRIAVDRHVHEAWLPEDTDGSATSRLMLSRPMSTDDRPPWDVWLVHGPAERHTLVYRTDHTFQDGMGAAYTARALLGDHPEGGPAPQRPARPTAHGLADALGEVVAAFRAPTPKPAFDGDFTGRVDVCHADTPLARLRAIARAHGGTVTDVYLAALSHAVRTWYLKDTGSAHPPLPVSIPMSVRAPGEEYAPGNRMVTARLLLPCDEESPQRALARVVAGTGRLRESRRRDAMRLLLSASPRALGATVGTRLVRGAFVAGPVSSVNFGTALVHQGVAARRSAVFAGVASGIRCVTTLTSQHDTACLTVVHDEALATADELPDLWLAALLELERPLEHHHHHH	not soluble
MSLANKPLAKALETISGIPITPFRKSDGSIDWHHYKETVDRIVDNGIDVIVPCGNTSEFYALSLEEAKEEVRRTVEYVHGRALVVAGIGYATSTAIELGNAAKAAGADAVMIHMPIHPYVTAGGVYAYFRDIIEALDFPSLVYFKDPEISDRVLVDLAPLQNLVGVKYAINDLPRFAKVVRSIPEEHQIAWICGTAEKWAPFFWHAGAKGFTSGLVNLLPQKAVEMLEALRNNDNDAVWRIWEDIVPFEDLRGKYNQGNNVVVIKEAMEMLRQNAGVTRAPVNELSNEDKQLVTELLSSWKLLQPTKGEGHHHHHH	soluble
MSVNMDELRHQVMINQFVLAAGCAADQAKQLLQAAHWQFETALSTFFQETNIPNSHHHH	soluble
MVFSDQQLFEKVVEILKPFDLSVVDYEEICDRMGESMRLGLQKSTNEKSSIKMFPSYVTKTPNGTETGNFLALDLGGTNYRVLSVTLEGKGKSPRIQERTYCIPAEKMSGSGTELFKYIAETLADFLENNGMKDKKFDLGFTFSFPCVQKGLTHATLVRWTKGFSADGVEGHNVAELLQTELDKRELNVKCVAVVNDTVGTLASCALEDPKCAVGLIVGTGTNVAYIEDSSKVELMDGVKEPEVVINTEWGAFGEKGELDCWRTQFDKSMDIDSLHPGKQLYEKMVSGMYLGELVRHIIVYLVEQKILFRGDLPERLKVRNSLLTRYLTDVERDPAHLLYNTHYMLTDDLHVPVVEPIDNRIVRYACEMVVKRAAYLAGAGIACILRRINRSEVTVGVDGSLYKFHPKFCERMTDMVDKLKPKNTRFCLRLSEDGSGKGAAAIAASCTRQN	soluble
GEQPSIQLTFADQNNSEMSVVHLNQLLKTNHISADKIIEKDGKTTIVFDGEDAQSKARALLNKELNKDDSITFSYVSVAPEWLNEMGFSPIKLGLDLRGGVQFLLNVDVNKAFEEQRDALIDEINASRDQRVRGVQVRAESGNRITVNSDSEQALSEVNKFLRQNYPGWISKSSSRGFVLEPSEQNIQEFQSSTLQQNLKIMRGRIEELGITEALVQRQGKESIRIELPGVQDPAQAKNVIGATASLAFYEVKDASQAHSSQDLVLQDNDGRTVILAKRPVLTGEHIVNARAGVDKMGMSEVNISLDHAGGKKMSDFSATHIGKPMATVYREYKTNDRGVTERSERVISVATIQSQLGSQFRITGAGSMDDAQQLALLLRAGSLTAPVTIVEERTIGASLGAENIEN	not soluble
